Measured values taken from publication PMC12044017, “CDK4/6-mediated phosphorylation of DUB3 promotes YAP1 stability and hepatocellular carcinoma progression” (Cell Death Discovery, 2025).

Target: T1, His-DUB3 (UniProt Q6R6M4 1-530)
T1 construct: deubiquitinase DUB3 (USP17L2), cloned into pET30a; the methods name only GST-DUB3 WT and His-YAP1
T1 sequence (looked up): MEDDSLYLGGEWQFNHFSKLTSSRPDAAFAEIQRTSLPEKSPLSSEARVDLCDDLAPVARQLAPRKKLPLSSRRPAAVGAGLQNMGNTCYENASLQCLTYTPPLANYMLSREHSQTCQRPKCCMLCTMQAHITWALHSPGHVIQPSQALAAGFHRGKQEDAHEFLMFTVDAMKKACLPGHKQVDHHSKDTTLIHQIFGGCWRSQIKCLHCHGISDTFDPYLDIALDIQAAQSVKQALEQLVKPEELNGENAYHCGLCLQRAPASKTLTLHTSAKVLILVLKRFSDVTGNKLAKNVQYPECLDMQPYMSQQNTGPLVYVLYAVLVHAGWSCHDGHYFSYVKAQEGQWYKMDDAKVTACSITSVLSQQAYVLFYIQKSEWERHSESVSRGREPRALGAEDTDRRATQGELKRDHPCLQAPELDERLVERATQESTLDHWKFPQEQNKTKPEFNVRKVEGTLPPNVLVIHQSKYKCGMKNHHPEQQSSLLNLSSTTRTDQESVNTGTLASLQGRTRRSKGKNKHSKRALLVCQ
Test: pull-down; GST-fusion protein on Pierce Glutathione agarose mixed with purified His-tagged protein at 4 °C for 2 hours; beads washed four times; western blot
Details: both partners purified

B1: GST-CDK4 (enzyme, UniProt P11802 1-303, looked up)
chain: MATSRYEPVAEIGVGAYGTVYKARDPHSGHFVALKSVRVPNGGGGGGGLPISTVREVALLRRLEAFEHPNVVRLMDVCATSRTDREIKVTLVFEHVDQDLRTYLDKAPPPGLPAETIKDLMRQFLRGLDFLHANCIVHRDLKPENILVTSGGTVKLADFGLARIYSYQMALTPVVVTLWYRAPEVLLQSTYATPVDMWSVGCIFAEMFRRKPLFCGNSEADQLGKIFDLIGLPPEDDWPRDVSLPRGAFPPRGPRPVQSVVPEMEESGAQLLLEMLTFNPHKRISAFRALQHSYLHKDEGNPE
notes: cyclin-dependent kinase 4 (CDK4); no cyclin partner is mentioned; also called cyclin-dependent kinase 4; source: bacterial-purified recombinant; GST-fusion proteins purified on Pierce Glutathione agarose
Q: Does B1 bind?
A: binds
